Results taken from patent publication US20260053882A1 (TRUSTEES OF PRINCETON UNIVERSITY, published 2026).

B3: SpyTag003-AF594 (His6-SpyTag003-SUMO-Cys Alexa Fluor 594 conjugate) (other)
chain: MGSSHHHHHHSSGLVPRGSRGVPHIVMVDAYKRYKGSGESGMSDSEVNQEAKPEVKPEVKPETHINLKVSDGSSEIFFKIKKTTPLRRLMEAFAKRQGKEMDSLRFLYDGIRIQADQTPEDLDMEDNDIIEAHREQIGC
modifications: Alexa Fluor 594 C5 maleimide on the C-terminal Cys
notes: the SUMO is internal (His6-SpyTag003-SUMO-Cys) and is not cut off; also called fluorescently labeled probe
B9: reconstituted SpyCatcher003 spliced from SpyN-αHER2 and SpyC-αEGFR (FLAG-αHER2-SpyCatcher003-αEGFR-Myc, NrdJ-1 splice product) (other)
chain: DYKDDDDKDLGKKLLEAARAGQDDEVRILMANGADVNAKDEYGLTPLYLATAHGHLEIVEVLLKNGADVNAVDAIGFTPLHLAAFIGHLEIAEVLLKHGADVNAQDKFGKTAFDISIGNGNEDLAEILQKLNGSTSGSVTTLSGLSGEQGPSGDMTTEEDSATHIKFSKRDEDGRELAGATMELRDSSGKTISTWISDGHVKDFYLYPGKYSFVETAAPDGYEVATPIEFTVNEDGQVTVDGEATEGDAHTGSTSGSDLGKKLLEAARAGQDDEVRILMANGADVNADDTWGWTPLHLAAYQGHLEIVEVLLKNGADVNAYDYIGWTPLHLAADGHLEIVEVLLKNGADVNASDYIGDTPLHLAAHNGHLEIVEVLLKHGADVNAQDKFGKTAFDISIDNGNEDLAEILQKLNEQKLISEEDL
notes: On cells it is held by its two DARPins on HER2 and EGFR; also called reconstituted SpyCather003; spliced SpyCatcher003

What was measured:
[1] = biological target: T1, Epithelial Cell Adhesion Molecule (EpCAM), endogenous on human cell lines (human, UniProt P16422 24-314); assay: flow cytometry, 100 nM DARPin-AF594 on human cancer cell lines
T1 construct: whole, on cells
T1 sequence (looked up): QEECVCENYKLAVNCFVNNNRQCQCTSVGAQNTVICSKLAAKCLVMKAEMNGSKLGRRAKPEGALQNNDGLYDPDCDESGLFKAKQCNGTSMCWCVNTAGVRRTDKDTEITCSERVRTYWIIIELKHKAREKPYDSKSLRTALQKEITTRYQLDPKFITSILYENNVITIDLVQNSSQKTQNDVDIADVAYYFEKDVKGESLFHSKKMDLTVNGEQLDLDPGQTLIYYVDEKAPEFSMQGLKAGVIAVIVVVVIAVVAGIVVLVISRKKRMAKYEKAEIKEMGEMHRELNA

[2] = biological target: B9; assay: western blot of K562 HER2+/EGFR+ cells treated with SMART-SpyCatcher and 300 nM SpyTag003-APEX2
Protocol: To the sample was added the specified SMART-SpyCatcher at the specified concentration by adding each individual component (SpyN and SpyC) from stock solutions. The sample was incubated for 2 hr, 37° C., 5% CO₂ to allow for actuation. The sample was then cooled at room temperature for 10 min before adding the specified SpyTag003 conjugate at 100 nM. […] The cells were then washed twice with cold DPBS, 1% w/v BSA, 2 mM CaCl₂) and incubated on ice until further analysis by confocal microscopy or flow-cytometry. Samples subjected to SDS-PAGE/western blotting were washed twice with DPBS alone to remove excess BSA. […] Adherent cell lines: The various adherent cell lines were cultured individually. Plated cells were lifted using trypsin, washed with complete medium and counted to estimate the cell concentration. Then 200,000 cells were seeded in a 24 well plate format and allowed 24 hr recovery and attachment in complete media. The assay protocol for SMART-SpyCatcher actuation and SpyTag003 recruitment follows that outlined above for the suspension cell lines. Post-treatment, the adherent cells were washed twice with DPBS, 1% w/v BSA, 2 mM CaCl₂) and then lifted with a non-enzymatic solution of DPBS, 1% w/v BSA, 50 mM EDTA and incubated on ice before analysis by flow-cytometry. For SDS-PAGE/western blotting cells were lifted as described and then washed with DPBS alone to remove excess BSA. […]

[3] = biological target: B9; assay: confocal microscopy, K562 HER2+/EGFR+ cells treated with SpyN-αHER2 and SpyC-αEGFR (eNrdJ-1^cage), 100 nM probe
Protocol: Confocal microscopy of K562 cell lines treated with SMART-SpyCatcher for [HER2 AND EGFR] operation. K562^{HER2+/EGFR+} cell line were assayed for SMART-SpyCatcher activation and analyzed by confocal microscopy.
(§1) Suspension cell lines: The K562 cell lines were cultured were individually. For an experiment, the culture of interest was spun down and counted to estimate the cell concentration. Then approximately 200,000 cells were isolated, washed twice with DPBS, 1% w/v BSA, 2 mM CaCl₂) and suspended in 0.4 mL of the buffer. To the sample was added the specified SMART-SpyCatcher at the specified concentration by adding each individual component (SpyN and SpyC) from stock solutions. The sample was incubated for 2 hr, 37° C., 5% CO₂ to allow for actuation. The sample was then cooled at room temperature for 10 min before adding the specified SpyTag003 conjugate at 100 nM. […] The cells were then washed twice with cold DPBS, 1% w/v BSA, 2 mM CaCl₂) and incubated on ice until further analysis by confocal microscopy or flow-cytometry. Samples subjected to SDS-PAGE/western blotting were washed twice with DPBS alone to remove excess BSA.

[4] = biological target: B9; assay: confocal microscopy, K562 HER2+/EGFR+ cells treated with SMART-SpyCatcher, 100 nM SpyTag003-DNP
Protocol: The anti-DNP antibody was detected using a goat anti-rabbit IgG AF594 conjugate.
Suspension cell lines: The K562 cell lines were cultured were individually. For an experiment, the culture of interest was spun down and counted to estimate the cell concentration. Then approximately 200,000 cells were isolated, washed twice with DPBS, 1% w/v BSA, 2 mM CaCl₂) and suspended in 0.4 mL of the buffer. To the sample was added the specified SMART-SpyCatcher at the specified concentration by adding each individual component (SpyN and SpyC) from stock solutions. The sample was incubated for 2 hr, 37° C., 5% CO₂ to allow for actuation. The sample was then cooled at room temperature for 10 min before adding the specified SpyTag003 conjugate at 100 nM. […] The cells were then washed twice with cold DPBS, 1% w/v BSA, 2 mM CaCl₂) and incubated on ice until further analysis by confocal microscopy or flow-cytometry.

[5] = biological target: B9; assay: western blot of K562 HER2+/EGFR+ cells treated with SMART-SpyCatcher
Protocol: (§2) Samples were run on an SDS-PAGE gel. […] The membrane was washed 3×5 min with TBS-T and incubated with primary antibodies at specified dilution (Table 4) on an orbital shaker for 1 hr at room temperature or alternatively overnight at 4° C. After washing 3×5 min with TBS-T, the IRDye secondary antibody or alternatively IRDye Streptavidin were applied for 30 min to 1 hour at room temperature, before imaging on a Li-Cor Odyssey imager (Li-Cor).
as §1

[6] = biological target: B9; assay: labeled mutant probe on K562 HER2+/EGFR+ cells treated with SMART-SpyCatcher, washed, AF594 signal
[7] = biological target: T2, HER2, endogenous on human cell lines (human, UniProt P04626 23-1255); assay: flow cytometry, 100 nM DARPin-AF594 on human cancer cell lines
T2 construct: whole, on cells

[8] = biological target: B3; assay: confocal microscopy, K562 HER2+/EGFR+ cells; splicing-dead SpyN-αHER2 together with SpyC-αEGFR
[9] = biological target: B3; assay: in vitro splicing of the C76V FKBP/FRB precursors with rapamycin, reaction with 2 µM SpyTag003-AF594, western blot
Protocol: as §2
Splicing was initiated either by addition of 8 μL, 50 µM rapamycin (DMSO) or 1 μL, 40×TEV protease. Buffered solution was added to compensate for volume differences when reaction components were omitted in control reactions. The reaction was left for 24 hr at 37° C. before further analysis by SDS-PAGE followed by western blotting.

[10] = biological target: B3; assay: flow cytometry, K562 HER2+/EGFR+ cells, SpyN-αHER2(K31E) + SpyC-αEGFR

B1: αEpCAM-AF594 DARPin (αEpCAM-HA-Cys Alexa Fluor 594 conjugate) (designed binder)
chain: DLGKKLLEAARAGQDDEVRILVANGADVNAYFGTTPLHLAAAHGRLEIVEVLLKNGADVNAQDVWGITPLHLAAYNGHLEIVEVLLKYGADVNAHDTRGWTPLHLAAINGHLEIVEVLLKNVADVNAQDRSGKTPFDLAIDNGNEDIAEVLQKAAKLNGGYPYDVPDYAGGSC
modifications: Alexa Fluor 594 C5 maleimide on the C-terminal Cys
notes: His6-SUMO tag cut off with Ulp1; range derived by counting; also called targeting DARPin labeled with AF594
- binding result [1]: binds

B2: SpyTag003-APEX2 (His6-SpyTag003-HA-APEX2) (other)
chain: MGSSHHHHHHSSGLVPRGSRGVPHIVMVDAYKRYKGSGESGYPYDVPDYASSGGKSYPTVSADYQDAVEKAKKKLRGFIAEKRCAPLMLRLAFHSAGTFDKGTKTGGPFGTIKHPAELAHSANNGLDIAVRLLEPLKAEFPILSYADFYQLAGVVAVEVTGGPKVPFHPGREDKPEPPPEGRLPDPTKGSDHLRDVFGKAMGLTDQDIVALSGGHTIGAAHKERSGFEGPWTSNPLIFDNSYFTELLSGEKEGLLQLPSDKALLSDPVFRPLVDKYAADEDAFFADYAEAHQKLSELGFADA
notes: Not SUMO-tagged
- binding result [2]: binds

Binder: B3
- binding result [3]: binds

B4: SpyTag003-DNP (His6-SpyTag003-SUMO-Cys dinitrophenol conjugate) (other)
chain: MGSSHHHHHHSSGLVPRGSRGVPHIVMVDAYKRYKGSGESGMSDSEVNQEAKPEVKPEVKPETHINLKVSDGSSEIFFKIKKTTPLRRLMEAFAKRQGKEMDSLRFLYDGIRIQADQTPEDLDMEDNDIIEAHREQIGC
modifications: 2,4-dinitrophenyl-maleimide on the C-terminal Cys
notes: Conjugate of SpyTag003-Cys; also called SpyTag003 2,4-dinitrolphenol conjugate; dinitrophenyl probe
- binding result [4]: binds

B5: SpyTag003-biotin (His6-SpyTag003-SUMO-Cys biotin conjugate) (other)
chain: MGSSHHHHHHSSGLVPRGSRGVPHIVMVDAYKRYKGSGESGMSDSEVNQEAKPEVKPEVKPETHINLKVSDGSSEIFFKIKKTTPLRRLMEAFAKRQGKEMDSLRFLYDGIRIQADQTPEDLDMEDNDIIEAHREQIGC
modifications: biotin maleimide on the C-terminal Cys
notes: Conjugate of SpyTag003-Cys; also called biotinylated probe
- binding result [5]: binds

B6: SpyTag003^D117A-AF594 (His6-SpyTag003^D117A-SUMO-Cys Alexa Fluor 594 conjugate) (other)
chain: MGSSHHHHHHSSGLVPRGSRGVPHIVMVAAYKRYKGSGESGMSDSEVNQEAKPEVKPEVKPETHINLKVSDGSSEIFFKIKKTTPLRRLMEAFAKRQGKEMDSLRFLYDGIRIQADQTPEDLDMEDNDIIEAHREQIGC
modifications: Alexa Fluor 594 C5 maleimide on the C-terminal Cys
- binding result [6]: no binding (tested: 100 nM)

B7: αHER2-AF594 DARPin (αHER2-HA-Cys Alexa Fluor 594 conjugate) (designed binder)
chain: DLGKKLLEAARAGQDDEVRILMANGADVNAKDEYGLTPLYLATAHGHLEIVEVLLKNGADVNAVDAIGFTPLHLAAFIGHLEIAEVLLKHGADVNAQDKFGKTAFDISIGNGNEDLAEILQKLNGGYPYDVPDYAGGSC
modifications: Alexa Fluor 594 C5 maleimide on the C-terminal Cys
notes: as for B1
- binding result [7]: binds

B8: αHER2-SpyN-eNrdJ-1N^cage Cys1-alkylated (other)
chain: DYKDDDDKDLGKKLLEAARAGQDDEVRILMANGADVNAKDEYGLTPLYLATAHGHLEIVEVLLKNGADVNAVDAIGFTPLHLAAFIGHLEIAEVLLKHGADVNAQDKFGKTAFDISIGNGNEDLAEILQKLNGSTSGSVTTLSGLSGEQGPSGDMTTEEDSATHIKFSKRDEDGRELAGATMELRDSSGKTISTWISDGHVKDFYLYPGKYCLVGSSEIITRNYGKTTIKEVVEIFDNDKNIQVLAFNTHTDNIEWAPIKAAQLTRPNAELVELEIDTLHGVKTIRVTPDHPVYTKNRGYVRADELTDDDELVVAIENLYGDEVNGYFQGMEAETYIGKLKSRAIVSNEDTYDIQTSTHNFFAND
modifications: Cys1 of eNrdJ-1N^cage alkylated with iodoacetamide (residue 331 of the printed SEQ ID NO 26)
notes: His6-SUMO tag cut off with Ulp1; range derived by counting; also called SpyN-αHER2 with Cys1-alkylated NrdJ-1N^cage
- binding result [8]: no binding (tested: 100 nM)

Binder: B9
- binding result [9]: binds

B10: reconstituted SpyCatcher003 with K31E, spliced from SpyN-αHER2(K31E) and SpyC-αEGFR (other)
chain: DYKDDDDKDLGKKLLEAARAGQDDEVRILMANGADVNAKDEYGLTPLYLATAHGHLEIVEVLLKNGADVNAVDAIGFTPLHLAAFIGHLEIAEVLLKHGADVNAQDKFGKTAFDISIGNGNEDLAEILQKLNGSTSGSVTTLSGLSGEQGPSGDMTTEEDSATHIKFSERDEDGRELAGATMELRDSSGKTISTWISDGHVKDFYLYPGKYSFVETAAPDGYEVATPIEFTVNEDGQVTVDGEATEGDAHTGSTSGSDLGKKLLEAARAGQDDEVRILMANGADVNADDTWGWTPLHLAAYQGHLEIVEVLLKNGADVNAYDYIGWTPLHLAADGHLEIVEVLLKNGADVNASDYIGDTPLHLAAHNGHLEIVEVLLKHGADVNAQDKFGKTAFDISIDNGNEDLAEILQKLNEQKLISEEDL
notes: K31 is counted on SpyCatcher003; ranges derived as for m26; also called defective POI; defective output
- binding result [10]: no binding (tested: 100 nM)
